{
  "source": "paper PMC6751202",
  "about": "“An aggregon in conductin/axin2 regulates Wnt/β-catenin signaling and holds potential for cancer therapy” (Nature Communications, 2019)",
  "proteins": {"B1": {"name": "GST-RGS Cdt (domain or fragment, mouse, UniProt O88566 67-208, looked up)", "chain": "GRASPDSPLTRWTKSLHSLLGDQDGAYLFRTFLEREKCVDTLDFWFACNGFRQMNLKDTKTLRVAKAIYKRYIENNSVVSKQLKPATKTYIRDGIKKQQIGSVMFDQAQTEIQAVMEENAYQVFLTSDIYLEYVRSGGENTA", "notes": "RGS domain of mouse conductin/axin2, amino acids 67-208; Cloned into pGEX-6P-1, which as far as I know puts GST at the N-terminus; GST itself can dimerise; also called isolated conductin RGS domain; recombinant GST-RGS Cdt; source: Rosetta (DE3) bacteria, purified (glutathione beads, eluted with free glutathione)"}},
  "biological_target": "the molecule itself",
  "experiment": "native gel or EMSA; recombinant GST-RGS Cdt and GST-RGS Cdt QV-PS purified from bacteria; PAGE under non-denaturing conditions, Western blot",
  "data": [
    {"protein": "B1", "values": [
      {"measurement": "binding result", "value": "binds"}
    ]}
  ]
}
